Experiments:
[1] = molecular target: gp120 of HIV-1NL4-3 (on virus particles) (HIV-1 (NL4-3)); test: cell-based or functional assay
[2] = molecular target: T1, purified HIV-1 gp120 (gp120-IIIB, Immuno Dx) (HIV-1 (IIIB), UniProt P04578 33-511); test: SPR (Biacore T200), gp120 amine-coupled to CM5 chip, MoMo30 flowed over; 1:1 model fit; three independent measurements in triplicate
T1 construct: domain: gp120; also called HIV gp120; purified gp120

B1: MoMo30 protein from Momordica balsamina (purified from leaf extract, 30 kDa cutoff retentate) (other)
chain: GGIATYWGQDTREGRLTAACATGKFQIINIGFLSTFGNGRPPQVNLTRHCSPISNGCRNVSVGVLNCRNDGVKVMLSIGGPHGSYSLSSAAEAIDLADYIWNNFLGGRSTSLRPFGDVPLDGVDFRIERGQFSHYYTMVARRLHDYGRQCSRKVYLTAAPGCRFPDKYLTELLHTGLFDYVWVRFFDDRQCQYNSVNPSGFWWSWMRWINSIPARKFYVGIPASEEAGDGYVAPEVLIKEVLPFTKKFTNYGGVMLFDLSNDVQTNYSSIISNRV
notes: also called 30 kDa MoMo protein; hevamine A-related MoMo30 protein
- IC50 of inhibition of HIV-1NL4-3 infectivity, MAGI cell assay [1]: 0.0028 µM
- Kd [2]: 6 µM
- koff [2]: 0.00242 s⁻¹
- kon [2]: 400 M⁻¹ s⁻¹

Source: patent publication US20220395548A1 (MOREHOUSE SCHOOL OF MEDICINE, published 2022)
